Laboratory results reported in article PMC9190012, “Heparin activation of protein Z-dependent protease inhibitor (ZPI) allosterically blocks protein Z activation through an extended heparin-binding site” (The Journal of Biological Chemistry, 2022).

Experiments:
Format in all cases: biochemical
FXa [1] = biological target: T1, FXa (Homo sapiens, UniProt P00742); test: Unaccelerated ZPI–FXa reactions: kinetics and stoichiometry of inhibition; settings: for ka,app: absence of PZ, 2.5 mM CaCl2, pH 7.4, 25 °C
T1 construct: purchased Enzyme Research Laboratories
Description: (§1) Apparent second-order rate constants for unaccelerated and H50-accelerated ZPI–FXa reactions were measured in the absence and presence of the optimal H50 concentration under pseudo–first-order conditions by analyzing full ZPI–FXa reaction progress curves over the ZPI concentration range of 10 to 900 nM with ∼0.5 nM FXa. Full reaction progress curves were also measured for ZPI–FXa reactions in the presence of PZ equimolar with ZPI, 25 μM lipid, and 5 mM CaCl2, as a function of the ZPI concentration in the range of 10 to 40 nM. Identical reaction mixtures were quenched at varying reaction times with substrate, and the time course of protease inactivation was measured from the decrease in initial rates of substrate hydrolysis. The first-order rate of decrease in protease activity with time was computer fit by a single exponential decay function with a nonzero end point and kobs obtained from the fitted exponential decay constant. Apparent second-order association rate constants (ka,app) were obtained from the slopes of linear plots of kobs versus the ZPI concentration according to the equation, kobs=kd+ka,app × [ZPI]0
(§2) In which kd represents the rate constant for ZPI–FXa complex dissociation and [ZPI]o is the total ZPI concentration. kd was fixed at the experimentally determined value of 10^−4 s^−1 for WT and ZPI mutants as described ([18]).
(§3) Fixed concentrations of FXa (50–100 nM FXa) were reacted with increasing concentrations of ZPI, ranging from a approximately threefold to sevenfold molar excess, in the absence of cofactors or in the presence of either 1 μM H50 or PZ equimolar with ZPI, 25 μM lipid, and 5 mM CaCl2, in kinetics buffer at 25 °C in reaction volumes of 50 μl. After allowing sufficient time to reach a reaction end point, based on measured second-order associate rate constants (∼5–30 min), remaining proteolytic activity was measured by reacting an aliquot (5–20 μl) of the reaction mixtures with 1 ml of 100 μM Spectrozyme fXa (American Diagnostica) containing 50 μg/ml Polybrene and 5 mM EDTA and monitoring the rate of absorbance change at 405 nm. The apparent SI was determined from the fitted abscissa intercept of a linear plot of residual protease activity against the molar ratio of inhibitor to protease ([18]). Because the ZPI–PZ complex dissociates to a small extent over the reaction time, apparent SIs depend on the time of incubation. To correct for such complex dissociation, apparent SIs were multiplied by the factor, exp (−kd × t), where kd is the measured complex dissociation rate constant of 10^−4 s^−1 and t the fixed reaction time. Simulations verified the validity of this correction for small extents of dissociation. Reported SIs are average values of at least two independent measurements at different reaction times.

FXa [2] = biological target: T1, FXa; test: PZ-accelerated ZPI–FXa reactions: kinetics and stoichiometry of inhibition; settings: for SI / ka,app × SI / ka,app × SI relative to WT: PZ-accelerated; for ka,app: equimolar PZ, 25 μM phospholipid, 5 mM CaCl2, pH 7.4, 25 °C; for PZ enhancement: ratio of PZ-accelerated to unaccelerated ka,app × SI
Description: as §1, §2, §3

FXa [3] = biological target: T1, FXa; test: H50 heparin-accelerated ZPI–FXa reactions: kinetics and stoichiometry of inhibition; settings: for SI / ka,app × SI / ka,app × SI relative to WT: 1 μM H50; for ka,app: 1 μM H50, 2.5 mM CaCl2, pH 7.4, 25 °C; for H50 rate enhancement: ratio of heparin-accelerated to unaccelerated ka,app × SI
Description: Heparin accelerating effects on the kinetics of ZPI–FXa reactions were evaluated as a function of heparin concentration under pseudo–first-order conditions (i.e., with a large molar excess of inhibitor over protease) by incubating reaction mixtures of 100 μl containing 70 nM ZPI and ∼0.5 nM FXa in the absence or presence of varying levels of H50 ranging from 10^−9 to 10^−4 M in 20 mM Tris buffer (pH 7.4), 0.1 M NaCl, 0.1% PEG 8000, 0.1 mg/ml BSA, and 2.5 mM CaCl2 at 25 °C for reaction times of 2 to 5 min. Reactions were quenched by adding 1 ml of 50 μM Pefafluor FXa substrate (Centerchem, Inc) containing 50 μg/ml polybrene and 5 mM EDTA. The initial linear rate of substrate hydrolysis was monitored at an excitation wavelength of 380 nm and an emission wavelength of 440 nm. The observed pseudo–first-order rate constant for reactions (kobs) was calculated from the equation, kobs=In([vo-v∞]/[vt-v∞])/t
where vt and v∞ are the initial velocities of protease hydrolysis of the substrate after reaction with ZPI for the fixed reaction time and after reaching the reaction end point, respectively, vo is the velocity measured in control reactions without ZPI, and t is the fixed reaction time. The dependence of kobs on heparin concentration was computer fit by nonlinear least squares analysis by the ternary complex bridging model equation ([10]).
as §1, §2
as §3, with “Simulations verified the validity of this correction for small extents of dissociation. Reported SIs are average values of at least two independent measurements at different reaction times.” left out

T1 sequence (P00742 235-488 limits assumed): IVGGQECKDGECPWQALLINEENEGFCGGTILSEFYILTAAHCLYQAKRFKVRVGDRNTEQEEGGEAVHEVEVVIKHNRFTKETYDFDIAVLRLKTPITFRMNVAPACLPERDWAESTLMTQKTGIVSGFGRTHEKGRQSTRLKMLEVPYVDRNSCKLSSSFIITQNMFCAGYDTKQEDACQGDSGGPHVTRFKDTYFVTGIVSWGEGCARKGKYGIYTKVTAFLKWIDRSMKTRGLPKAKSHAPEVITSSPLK
T1 sequence (P00742 41-179 limits assumed): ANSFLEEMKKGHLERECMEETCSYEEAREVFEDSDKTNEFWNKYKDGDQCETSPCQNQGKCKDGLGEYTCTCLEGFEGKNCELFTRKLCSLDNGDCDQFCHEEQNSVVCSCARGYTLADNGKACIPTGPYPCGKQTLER

Row | Molecule | SI (FXa [1]) [moles ZPI/mole FXa] | ka,app × SI (FXa [1]) | ka,app × SI relative to WT (FXa [1]) | ka,app (FXa [1]) | SI (FXa [2]) [moles ZPI/mole FXa] | ka,app × SI (FXa [2]) | ka,app × SI relative to WT (FXa [2]) | ka,app (FXa [2]) | PZ enhancement (FXa [2]) | SI (FXa [3]) [moles ZPI/mole FXa] | ka,app × SI (FXa [3]) | ka,app × SI relative to WT (FXa [3]) | ka,app (FXa [3]) | H50 rate enhancement (FXa [3]) [fold]
1 | R305A: ZPI helix H site mutant (protein, UniProt Q9UK55 22-444, looked up, variant R305A) Protein Z-dependent protease …: LAPSPQSPETPAPQNQTSRVVQAPKEEEEDEQEASEEKASEEEKAWLMASRQQLAKETSNFGFSLLRKISMRHDGNMVFSPFGMSLAMTGLMLGATGPTETQIKRGLHLQALKPTKPGLLPSLFKGLRETLSRNLELGLTQGSFAFIHKDFDVKETFFNLSKRYFDTECVPMNFRNASQAKRLMNHYINKETRGKIPKLFDEINPETKLILVDYILFKGKWLTPFDPVFTEVDTFHLDKYKTIKVPMMYGAGKFASTFDKNFRCHVLKLPYQGNATMLVVLMEKMGDHLALEDYLTTDLVETWLANMKTRNMEVFFPKFKLDQKYEMHELLRQMGIRRIFSPFADLSELSATGRNLQVSRVLQRTVIEVDERGTEAVAGILSEITAYSMPPVIKVDRPFHFMIYEETSGMLLFLGRVVNPTLL | 2.4 ± 0.2 | 1.8 ± 0.2 × 10^4 M^−1 s^−1 | (1.1) | 7.3 ± 0.4 × 10^3 M^−1 s^−1 | 3.3 ± 0.1 | 3.2 ± 0.4 × 10^7 M^−1 s^−1 | (0.73) | 9.8 ± 1.0 × 10^6 M^−1 s^−1 | 1778 | 1.8 ± 0.1 | 5.3 ± 0.9 × 10^5 M^−1 s^−1 | (0.44) | 2.9 ± 0.3 × 10^5 M^−1 s^−1 | ~29
2 | K125A/R128A: ZPI mutant of helix D residues (protein, UniProt Q9UK55 22-444, looked up, variant K125A R128A) Protein Z-dependent protease …: LAPSPQSPETPAPQNQTSRVVQAPKEEEEDEQEASEEKASEEEKAWLMASRQQLAKETSNFGFSLLRKISMRHDGNMVFSPFGMSLAMTGLMLGATGPTETQIKRGLHLQALKPTKPGLLPSLFAGLAETLSRNLELGLTQGSFAFIHKDFDVKETFFNLSKRYFDTECVPMNFRNASQAKRLMNHYINKETRGKIPKLFDEINPETKLILVDYILFKGKWLTPFDPVFTEVDTFHLDKYKTIKVPMMYGAGKFASTFDKNFRCHVLKLPYQGNATMLVVLMEKMGDHLALEDYLTTDLVETWLRNMKTRNMEVFFPKFKLDQKYEMHELLRQMGIRRIFSPFADLSELSATGRNLQVSRVLQRTVIEVDERGTEAVAGILSEITAYSMPPVIKVDRPFHFMIYEETSGMLLFLGRVVNPTLL | 1.7 ± 0.1 | 6.3 ± 0.3 × 10^3 M^−1 s^−1 | (0.39) | 3.7 ± 0.1 × 10^3 M^−1 s^−1 | 5.6 ± 0.1 | 2.9 ± 0.2 × 10^7 M^−1 s^−1 | (0.66) | 5.2 ± 0.2 × 10^6 M^−1 s^−1 | 4603 | 4.9 ± 0.2 | 5.6 ± 0.8 × 10^5 M^−1 s^−1 | (0.47) | 1.2 ± 0.1 × 10^5 M^−1 s^−1 | ~89

The remaining lines, values ahead:

Row | SI (FXa [1]) [moles ZPI/mole FXa] | ka,app × SI (FXa [1]) | ka,app × SI relative to WT (FXa [1]) | ka,app (FXa [1]) | SI (FXa [2]) [moles ZPI/mole FXa] | ka,app × SI (FXa [2]) | ka,app × SI relative to WT (FXa [2]) | ka,app (FXa [2]) | PZ enhancement (FXa [2]) | SI (FXa [3]) [moles ZPI/mole FXa] | ka,app × SI (FXa [3]) | ka,app × SI relative to WT (FXa [3]) | ka,app (FXa [3]) | H50 rate enhancement (FXa [3]) [fold] | Molecule
3 | 2.7 ± 0.2 | 1.0 ± 0.2 × 10^4 M^−1 s^−1 | (0.62) | 3.8 ± 0.3 × 10^3 M^−1 s^−1 | 2.9 ± 0.2 | 2.7 ± 0.6 × 10^7 M^−1 s^−1 | (0.61) | 9.4 ± 1.4 × 10^6 M^−1 s^−1 | 2700 | 1.9 ± 0.2 | 3.5 ± 0.5 × 10^5 M^−1 s^−1 | (0.29) | 1.8 ± 0.1 × 10^5 M^−1 s^−1 | ~35 | R310A: ZPI helix H site mutant (protein, UniProt Q9UK55 22-444, looked up, variant R310A) Protein Z-dependent protease …: LAPSPQSPETPAPQNQTSRVVQAPKEEEEDEQEASEEKASEEEKAWLMASRQQLAKETSNFGFSLLRKISMRHDGNMVFSPFGMSLAMTGLMLGATGPTETQIKRGLHLQALKPTKPGLLPSLFKGLRETLSRNLELGLTQGSFAFIHKDFDVKETFFNLSKRYFDTECVPMNFRNASQAKRLMNHYINKETRGKIPKLFDEINPETKLILVDYILFKGKWLTPFDPVFTEVDTFHLDKYKTIKVPMMYGAGKFASTFDKNFRCHVLKLPYQGNATMLVVLMEKMGDHLALEDYLTTDLVETWLRNMKTANMEVFFPKFKLDQKYEMHELLRQMGIRRIFSPFADLSELSATGRNLQVSRVLQRTVIEVDERGTEAVAGILSEITAYSMPPVIKVDRPFHFMIYEETSGMLLFLGRVVNPTLL
4 | 2.9 ± 0.2 | 1.7 ± 0.1 × 10^4 M^−1 s^−1 | (1.1) | 5.8 ± 0.1 × 10^3 M^−1 s^−1 | 2.7 ± 0.1 | 2.6 ± 0.1 × 10^7 M^−1 s^−1 | (0.59) | 9.5 ± 0.1 × 10^6 M^−1 s^−1 | 1524 | 2.2 ± 0.3 | 5.4 ± 0.9 × 10^5 M^−1 s^−1 | (0.45) | 2.4 ± 0.1 × 10^5 M^−1 s^−1 | ~32 | K308A: ZPI helix H site mutant (protein, UniProt Q9UK55 22-444, looked up, variant K308A) Protein Z-dependent protease …: LAPSPQSPETPAPQNQTSRVVQAPKEEEEDEQEASEEKASEEEKAWLMASRQQLAKETSNFGFSLLRKISMRHDGNMVFSPFGMSLAMTGLMLGATGPTETQIKRGLHLQALKPTKPGLLPSLFKGLRETLSRNLELGLTQGSFAFIHKDFDVKETFFNLSKRYFDTECVPMNFRNASQAKRLMNHYINKETRGKIPKLFDEINPETKLILVDYILFKGKWLTPFDPVFTEVDTFHLDKYKTIKVPMMYGAGKFASTFDKNFRCHVLKLPYQGNATMLVVLMEKMGDHLALEDYLTTDLVETWLRNMATRNMEVFFPKFKLDQKYEMHELLRQMGIRRIFSPFADLSELSATGRNLQVSRVLQRTVIEVDERGTEAVAGILSEITAYSMPPVIKVDRPFHFMIYEETSGMLLFLGRVVNPTLL
